Measured values from patent publication US20220089776A1 (OREGON HEALTH AND SCIENCE UNIVERSITY, published 2022).

Tests used:
mouse FXII = target: T1, mouse FXII (mouse, UniProt Q80YC5 20-597); test: Western blot of recombinant mouse FXII, non-reduced and reduced SDS-PAGE; primary antibody murine 5C12
T1 construct: mature; Plasma protein; Tested only in the aPTT assay
T1 sequence (looked up): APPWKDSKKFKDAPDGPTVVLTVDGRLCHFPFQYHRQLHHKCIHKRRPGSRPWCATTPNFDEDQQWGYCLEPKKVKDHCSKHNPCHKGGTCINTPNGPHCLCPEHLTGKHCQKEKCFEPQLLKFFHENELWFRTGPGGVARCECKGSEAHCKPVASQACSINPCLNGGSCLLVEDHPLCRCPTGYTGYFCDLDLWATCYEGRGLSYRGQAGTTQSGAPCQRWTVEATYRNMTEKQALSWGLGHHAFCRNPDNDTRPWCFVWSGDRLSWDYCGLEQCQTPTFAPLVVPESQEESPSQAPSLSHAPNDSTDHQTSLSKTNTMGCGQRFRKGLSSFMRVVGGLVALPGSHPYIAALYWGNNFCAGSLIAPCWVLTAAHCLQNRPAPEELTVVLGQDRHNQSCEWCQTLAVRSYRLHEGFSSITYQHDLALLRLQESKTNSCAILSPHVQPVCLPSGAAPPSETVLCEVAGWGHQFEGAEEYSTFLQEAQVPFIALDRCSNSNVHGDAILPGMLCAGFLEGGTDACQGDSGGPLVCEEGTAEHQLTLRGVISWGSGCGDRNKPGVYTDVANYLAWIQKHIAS
Text: (§1) FIG. 3A-3C: Species specificity of 5C12. (FIG. 3A) Western blots of platelet poor plasmas from different species (indicated above each lane) size fractionated by SDS-PAGE […]. Species included in alphabetical order: African green monkey, baboon, beagle, cat, cattle, chicken, cynomolgus monkey, dog, elephant, giant anteater, horse, human, human deficient in FXII, llama, marmoset, pig, rabbit, raccoon, rat, red kangaroo, rhesus macaque and tiger. Human plasma and human deficient in FXII plasma were used in all gels as a positive and negative control, respectively. […] 5C12 also recognizes both the alpha (comprising both the light and heavy chain of FXII) and the beta (comprising only the light chain and a nonapeptide fragment of the heavy chain) form of activated FXII (FXIIa) (FIG. 3C). The primary antibody for all Western blots was murine 5C12, the secondary antibody was goat-anti-mouse polyclonal.

cattle FXII = target: T2, cattle FXII (cattle, UniProt P98140 20-612); test: Western blot of platelet-poor plasma; primary antibody murine 5C12
T2 construct: mature; Plasma protein
T2 sequence (looked up): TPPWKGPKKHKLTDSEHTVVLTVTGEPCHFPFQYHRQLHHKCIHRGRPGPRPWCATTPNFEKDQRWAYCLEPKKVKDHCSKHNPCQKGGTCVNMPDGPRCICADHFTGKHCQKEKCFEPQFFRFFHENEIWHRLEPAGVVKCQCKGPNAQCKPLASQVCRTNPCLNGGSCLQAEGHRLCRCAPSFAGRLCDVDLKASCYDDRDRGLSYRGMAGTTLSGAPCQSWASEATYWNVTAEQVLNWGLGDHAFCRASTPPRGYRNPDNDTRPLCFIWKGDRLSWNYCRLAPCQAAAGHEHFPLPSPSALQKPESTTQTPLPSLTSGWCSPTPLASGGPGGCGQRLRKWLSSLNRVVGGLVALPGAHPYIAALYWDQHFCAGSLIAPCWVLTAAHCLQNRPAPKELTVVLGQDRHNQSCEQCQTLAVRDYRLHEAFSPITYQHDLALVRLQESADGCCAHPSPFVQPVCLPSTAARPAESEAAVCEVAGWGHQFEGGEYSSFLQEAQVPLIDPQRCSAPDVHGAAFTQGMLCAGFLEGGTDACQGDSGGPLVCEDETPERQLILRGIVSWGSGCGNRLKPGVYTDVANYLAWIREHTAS
Text: as §1

pig FXII = target: T3, pig FXII (pig, UniProt O97507 20-616); test: as above
T3 construct: mature; Plasma protein
T3 sequence (looked up): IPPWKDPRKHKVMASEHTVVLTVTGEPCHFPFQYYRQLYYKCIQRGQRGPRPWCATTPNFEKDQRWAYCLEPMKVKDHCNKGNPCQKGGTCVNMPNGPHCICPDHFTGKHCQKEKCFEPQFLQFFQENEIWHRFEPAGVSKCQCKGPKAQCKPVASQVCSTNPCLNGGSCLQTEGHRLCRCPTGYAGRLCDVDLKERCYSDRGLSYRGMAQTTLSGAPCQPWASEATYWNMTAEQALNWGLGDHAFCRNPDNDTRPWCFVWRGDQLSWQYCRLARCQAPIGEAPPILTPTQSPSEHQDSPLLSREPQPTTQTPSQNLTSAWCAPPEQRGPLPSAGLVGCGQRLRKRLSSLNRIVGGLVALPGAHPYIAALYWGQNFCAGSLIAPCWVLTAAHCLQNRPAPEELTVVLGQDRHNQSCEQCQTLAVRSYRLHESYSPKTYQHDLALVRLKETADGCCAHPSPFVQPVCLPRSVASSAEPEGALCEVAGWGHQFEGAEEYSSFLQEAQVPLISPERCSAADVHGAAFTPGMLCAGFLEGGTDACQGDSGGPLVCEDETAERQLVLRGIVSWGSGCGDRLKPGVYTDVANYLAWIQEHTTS
Text: as §1

rhesus macaque FXII = target: T4, rhesus macaque FXII (rhesus macaque, UniProt F7FY72 20-615); test: as above
T4 construct: Plasma protein
T4 sequence: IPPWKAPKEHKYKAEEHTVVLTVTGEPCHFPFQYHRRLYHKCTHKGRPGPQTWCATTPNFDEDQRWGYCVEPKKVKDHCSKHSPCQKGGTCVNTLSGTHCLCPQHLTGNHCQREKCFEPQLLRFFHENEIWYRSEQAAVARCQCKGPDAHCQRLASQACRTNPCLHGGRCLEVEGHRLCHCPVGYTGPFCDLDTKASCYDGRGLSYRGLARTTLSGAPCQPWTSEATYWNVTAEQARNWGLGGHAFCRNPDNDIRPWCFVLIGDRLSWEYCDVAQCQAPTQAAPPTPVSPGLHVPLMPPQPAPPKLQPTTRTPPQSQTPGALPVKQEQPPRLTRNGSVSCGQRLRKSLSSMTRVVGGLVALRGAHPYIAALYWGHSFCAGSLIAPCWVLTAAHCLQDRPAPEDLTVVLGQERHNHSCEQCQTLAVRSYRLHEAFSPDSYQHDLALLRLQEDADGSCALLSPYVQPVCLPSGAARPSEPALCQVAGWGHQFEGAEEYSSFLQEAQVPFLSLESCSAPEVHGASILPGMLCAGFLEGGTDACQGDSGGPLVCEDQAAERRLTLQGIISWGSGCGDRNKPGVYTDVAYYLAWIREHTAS
Text: as §1

Measured: binding result

B1: mouse monoclonal antibody 5C12 (antibody, mouse IgG1, kappa, V domains shown)
VH: DVQLQESGPDLVKPSQSLSLTCTVTGYSITSGYSWHWIRQFPGNNLEWMGYIQYSGNTNSNPSLKSRISITRDTSKNQFFLHLNSVTTEDTATYYCARWGSFDYWGQGTTLTVSS
VL: QIVLTQSPAIMSASPGEKVTMTCSASSSVNYMHWYQQKSGTSPKRWIYDTSKLASGVPARFSGSGSGTSYSLTISSMEAGDAATYYCQQWSGNPPTFGGGTILEIKR
notes: Purified from hybridoma; also called AB053; 5C12 MAb
no binding: all assays above
